# From US20230272119A1 (MARENGO THERAPEUTICS, published 2023)
# Key:
# [1] = molecular target: T1, α-CSF2 heavy-LgBiT (SEQ ID NO: 101); assay: NanoBiT, HC-LgBiT:LC-SmBiT:competing LC 1:1:1; competing lambda LC m48 (SEQ ID NO: 139)
# T1 construct: VH-CH1-linker-LgBiT; germline VH1-3*01
# [2] = molecular target: T1, α-CSF2 heavy-LgBiT (SEQ ID NO: 101); assay: NanoBiT, HC-LgBiT:LC-SmBiT:competing LC 1:1:1; competing lambda LC m66 (SEQ ID NO: 157)
# [3] = molecular target: T1, α-CSF2 heavy-LgBiT (SEQ ID NO: 101); assay: NanoBiT, HC-LgBiT:LC-SmBiT:competing LC 1:1:1; competing lambda LC m72 (SEQ ID NO: 163)
# [4] = molecular target: T1, α-CSF2 heavy-LgBiT (SEQ ID NO: 101); assay: NanoBiT, HC-LgBiT:LC-SmBiT:competing LC 1:1:1; competing lambda LC m69 (SEQ ID NO: 160)
# [5] = molecular target: T2, α-IGF1R heavy-LgBiT (SEQ ID NO: 116); assay: NanoBiT, HC-LgBiT:LC-SmBiT:competing LC 1:1:1; competing lambda LC m66 (SEQ ID NO: 157)
# T2 construct: VH-CH1-linker-LgBiT; germline VH3-23*01
# [6] = molecular target: T2, α-IGF1R heavy-LgBiT (SEQ ID NO: 116); assay: NanoBiT, HC-LgBiT:LC-SmBiT:competing LC 1:1:1; competing lambda LC m54 (SEQ ID NO: 145)
# [7] = molecular target: T2, α-IGF1R heavy-LgBiT (SEQ ID NO: 116); assay: NanoBiT, HC-LgBiT:LC-SmBiT:competing LC 1:1:1; competing lambda LC m72 (SEQ ID NO: 163)
# [8] = molecular target: T2, α-IGF1R heavy-LgBiT (SEQ ID NO: 116); assay: NanoBiT, HC-LgBiT:LC-SmBiT:competing LC 1:1:1; competing lambda LC m60 (SEQ ID NO: 151)
# [9] = molecular target: T2, α-IGF1R heavy-LgBiT (SEQ ID NO: 116); assay: NanoBiT, HC-LgBiT:LC-SmBiT:competing LC 1:1:1; competing lambda LC m69 (SEQ ID NO: 160)
# [10] = molecular target: T3, α-IGF1R heavy-LgBiT (SEQ ID NO: 119); assay: NanoBiT, HC-LgBiT:LC-SmBiT:competing LC 1:1:1; competing lambda LC m51 (SEQ ID NO: 142)
# T3 construct: VH-CH1-linker-LgBiT; germline VH3-21*01
# [11] = molecular target: T3, α-IGF1R heavy-LgBiT (SEQ ID NO: 119); assay: NanoBiT, HC-LgBiT:LC-SmBiT:competing LC 1:1:1; competing lambda LC m63 (SEQ ID NO: 154)
# [12] = molecular target: T3, α-IGF1R heavy-LgBiT (SEQ ID NO: 119); assay: NanoBiT, HC-LgBiT:LC-SmBiT:competing LC 1:1:1; competing lambda LC m72 (SEQ ID NO: 163)
# [13] = molecular target: T3, α-IGF1R heavy-LgBiT (SEQ ID NO: 119); assay: NanoBiT, HC-LgBiT:LC-SmBiT:competing LC 1:1:1; competing lambda LC m69 (SEQ ID NO: 160)
# [14] = molecular target: T4, α-IL6R heavy-LgBiT (SEQ ID NO: 125); assay: NanoBiT, HC-LgBiT:LC-SmBiT:competing LC 1:1:1; competing lambda LC m48 (SEQ ID NO: 139)
# T4 construct: VH-CH1-linker-LgBiT; germline VH3-9*01
# [15] = molecular target: T4, α-IL6R heavy-LgBiT (SEQ ID NO: 125); assay: NanoBiT, HC-LgBiT:LC-SmBiT:competing LC 1:1:1; competing lambda LC m66 (SEQ ID NO: 157)
# [16] = molecular target: T4, α-IL6R heavy-LgBiT (SEQ ID NO: 125); assay: NanoBiT, HC-LgBiT:LC-SmBiT:competing LC 1:1:1; competing lambda LC m54 (SEQ ID NO: 145)
# [17] = molecular target: T4, α-IL6R heavy-LgBiT (SEQ ID NO: 125); assay: NanoBiT, HC-LgBiT:LC-SmBiT:competing LC 1:1:1; competing lambda LC m63 (SEQ ID NO: 154)
# [18] = molecular target: T4, α-IL6R heavy-LgBiT (SEQ ID NO: 125); assay: NanoBiT, HC-LgBiT:LC-SmBiT:competing LC 1:1:1; competing lambda LC m45 (SEQ ID NO: 136)
# [19] = molecular target: T5, α-IFN heavy-LgBiT (SEQ ID NO: 107); assay: NanoBiT, HC-LgBiT:LC-SmBiT:competing LC 1:1:1; competing lambda LC m48 (SEQ ID NO: 139)
# T5 construct: VH-CH1-linker-LgBiT; germline VH5-51*01
# [20] = molecular target: T5, α-IFN heavy-LgBiT (SEQ ID NO: 107); assay: NanoBiT, HC-LgBiT:LC-SmBiT:competing LC 1:1:1; competing lambda LC m72 (SEQ ID NO: 163)
# [21] = molecular target: T5, α-IFN heavy-LgBiT (SEQ ID NO: 107); assay: NanoBiT, HC-LgBiT:LC-SmBiT:competing LC 1:1:1; competing lambda LC m69 (SEQ ID NO: 160)
# [22] = molecular target: T6, α-neuropilin 1 heavy-LgBiT (SEQ ID NO: 131); assay: NanoBiT, HC-LgBiT:LC-SmBiT:competing LC 1:1:1; competing lambda LC m51 (SEQ ID NO: 142)
# T6 construct: VH-CH1-linker-LgBiT; germline VH3-66*01
# [23] = molecular target: T6, α-neuropilin 1 heavy-LgBiT (SEQ ID NO: …); assay: NanoBiT, HC-LgBiT:LC-SmBiT:competing LC 1:1:1; competing lambda LC m48 (SEQ ID NO: 139)
# [24] = molecular target: T6, α-neuropilin 1 heavy-LgBiT (SEQ ID NO: …); assay: NanoBiT, HC-LgBiT:LC-SmBiT:competing LC 1:1:1; competing lambda LC m66 (SEQ ID NO: 157)
# [25] = molecular target: T6, α-neuropilin 1 heavy-LgBiT (SEQ ID NO: …); assay: NanoBiT, HC-LgBiT:LC-SmBiT:competing LC 1:1:1; competing lambda LC m54 (SEQ ID NO: 145)
# [26] = molecular target: T6, α-neuropilin 1 heavy-LgBiT (SEQ ID NO: …); assay: NanoBiT, HC-LgBiT:LC-SmBiT:competing LC 1:1:1; competing lambda LC m63 (SEQ ID NO: 154)
# [27] = molecular target: T6, α-neuropilin 1 heavy-LgBiT (SEQ ID NO: …); assay: NanoBiT, HC-LgBiT:LC-SmBiT:competing LC 1:1:1; competing lambda LC m72 (SEQ ID NO: 163)
# [28] = molecular target: T6, α-neuropilin 1 heavy-LgBiT (SEQ ID NO: …); assay: NanoBiT, HC-LgBiT:LC-SmBiT:competing LC 1:1:1; competing lambda LC m45 (SEQ ID NO: 136)
# [29] = molecular target: T6, α-neuropilin 1 heavy-LgBiT (SEQ ID NO: …); assay: NanoBiT, HC-LgBiT:LC-SmBiT:competing LC 1:1:1; competing lambda LC m69 (SEQ ID NO: 160)
# [30] = molecular target: T7, α-CD221 heavy-LgBiT (SEQ ID NO: 134); assay: NanoBiT, HC-LgBiT:LC-SmBiT:competing LC 1:1:1; competing kappa LC m15 (SEQ ID NO: 106)
# T7 construct: VH-CH1-linker-LgBiT; germline VH1-69*01
# [31] = molecular target: T7, α-CD221 heavy-LgBiT (SEQ ID NO: 134); assay: NanoBiT, HC-LgBiT:LC-SmBiT:competing LC 1:1:1; competing kappa LC m33 (SEQ ID NO: 124)
# [32] = molecular target: T7, α-CD221 heavy-LgBiT (SEQ ID NO: 134); assay: NanoBiT, HC-LgBiT:LC-SmBiT:competing LC 1:1:1; competing kappa LC m21 (SEQ ID NO: 112)
# [33] = molecular target: T7, α-CD221 heavy-LgBiT (SEQ ID NO: 134); assay: NanoBiT, HC-LgBiT:LC-SmBiT:competing LC 1:1:1; competing kappa LC m42 (SEQ ID NO: 133)
binder,measurement,setting,value
"α-CSF2 light-SmBiT (SEQ ID NO: 102) (other, kappa light chain-linker-SmBiT; germline Vk3D-20*01) light: EIVLTQSPATLSVSPGERATLSCRASQSVGTNVAWYQQKPGQAPRVLIYSTSSRATGITDRFSGSGSGTDFTLTISRLEPEDFAVYYCQQFNKSPLTFGGGTKVEIKRTVAAPSVFIFPPSDEQLKSGTASVVCLLNNFYPREAKVQWKVDNALQSGNSQESVTEQDSKDSTYSLSSTLTLSKADYEKHKVYACEVTHQGLSSPVTKSFNRGECGSSGGGGSGGGGSSGGVTGYRLFEEIL",Percent pairing,[1],100%
same,Percent pairing,[2],93%
same,Percent pairing,[3],83%
same,Percent pairing,[4],98%
"α-IGF1R light-SmBiT (SEQ ID NO: 117) (other, kappa light chain-linker-SmBiT; germline Vk1-27*01) light: DIQMTQSPSSLSASLGDRVTITCRASQGISSYLAWYQQKPGKAPKLLIYAKSTLQSGVPSRFSGSGSGTDFTLTISSLQPEDSATYYCQQYWTFPLTFGGGTKVEIKRTVAAPSVFIFPPSDEQLKSGTASVVCLLNNFYPREAKVQWKVDNALQSGNSQESVTEQDSKDSTYSLSSTLTLSKADYEKHKVYACEVTHQGLSSPVTKSFNRGECGSSGGGGSGGGGSSGGVTGYRLFEEIL",Percent pairing,[5],95%
same,Percent pairing,[6],84%
same,Percent pairing,[7],96%
same,Percent pairing,[8],81%
same,Percent pairing,[9],100%
"α-IGF1R light-SmBiT (SEQ ID NO: 120) (other, kappa light chain-linker-SmBiT; germline Vk3-20*01) light: EIVLTQSPGTLSVSPGERATLSCRASQSIGSSLHWYQQKPGQAPRLLIKYASQSLSGIPDRFSGSGSGTDFTLTISRLEPEDFAVYYCHQSSRLPHTFGQGTKVEIKRTVAAPSVFIFPPSDEQLKSGTASVVCLLNNFYPREAKVQWKVDNALQSGNSQESVTEQDSKDSTYSLSSTLTLSKADYEKHKVYACEVTHQGLSSPVTKSFNRGECGSSGGGGSGGGGSSGGVTGYRLFEEIL",Percent pairing,[10],95%
same,Percent pairing,[11],99%
same,Percent pairing,[12],100%
same,Percent pairing,[13],100%
"α-IL6R light-SmBiT (SEQ ID NO: 126) (other, kappa light chain-linker-SmBiT; germline Vk1-12*01) light: DIQMTQSPSSVSASVGDRVTITCRASQGISSWLAWYQQKPGKAPKLLIYGASSLESGVPSRFSGSGSGTDFTLTISSLQPEDFASYYCQQANSFPYTFGQGTKLEIKRTVAAPSVFIFPPSDEQLKSGTASVVCLLNNFYPREAKVQWKVDNALQSGNSQESVTEQDSKDSTYSLSSTLTLSKADYEKHKVYACEVTHQGLSSPVTKSFNRGECGSSGGGGSGGGGSSGGVTGYRLFEEIL",Percent pairing,[14],99%
same,Percent pairing,[15],100%
same,Percent pairing,[16],100%
same,Percent pairing,[17],84%
same,Percent pairing,[18],100%
"α-IFN light-SmBiT (SEQ ID NO: 108) (other, kappa light chain-linker-SmBiT; germline Vk3-20*01) light: EIVLTQSPGTLSLSPGERATLSCRASQSVSSSFFAWYQQKPGQAPRLLIYGASSRATGIPDRLSGSGSGTDFTLTITRLEPEDFAVYYCQQYDSSAITFGQGTRLEIKRTVAAPSVFIFPPSDEQLKSGTASVVCLLNNFYPREAKVQWKVDNALQSGNSQESVTEQDSKDSTYSLSSTLTLSKADYEKHKVYACEVTHQGLSSPVTKSFNRGECGSSGGGGSGGGGSSGGVTGYRLFEEIL",Percent pairing,[19],100%
same,Percent pairing,[20],100%
same,Percent pairing,[21],80%
"α-neuropilin 1 light-SmBiT (SEQ ID NO: 132) (other, kappa light chain-linker-SmBiT; germline Vk1-39*01) light: DIQMTQSPSSLSASVGDRVTITCRASQYFSSYLAWYQQKPGKAPKLLIYGASSRASGVPSRFSGSGSGTDFTLTISSLQPEDFATYYCQQYLGSPPTFGQGTKVEIKRTVAAPSVFIFPPSDEQLKSGTASVVCLLNNFYPREAKVQWKVDNALQSGNSQESVTEQDSKDSTYSLSSTLTLSKADYEKHKVYACEVTHQGLSSPVTKSFNRGECGSSGGGGSGGGGSSGGVTGYRLFEEIL",Percent pairing,[22],84%
same,Percent pairing,[23],100%
same,Percent pairing,[24],100%
same,Percent pairing,[25],100%
same,Percent pairing,[26],100%
same,Percent pairing,[27],100%
same,Percent pairing,[28],100%
same,Percent pairing,[29],100%
"α-CD221 light-SmBiT (SEQ ID NO: 135) (other, lambda light chain-linker-SmBiT; germline Vl3-19*01) light: SSELTQDPAVSVALGQTVRITCQGDSLRSYYATWYQQKPGQAPILVIYGENKRPSGIPDRFSGSSSGNTASLTITGAQAEDEADYYCKSRDGSGQHLVFGGGTKLTVLGQPKANPTVTLFPPSSEELQANKATLVCLISDFYPGAVTVAWKADGSPVKAGVETTKPSKQSNNKYAASSYLSLTPEQWKSHRSYSCQVTHEGSTVEKTVAPTECSGSSGGGGSGGGGSSGGVTGYRLFEEIL",Percent pairing,[30],96%
same,Percent pairing,[31],100%
same,Percent pairing,[32],95%
same,Percent pairing,[33],100%
